Here are results for five molecules from patent US20140087995A1 (published 2014).

Numbered stars: 1 amine (or outer) side, 2 acyl side, 3 side chain; on linkers, the order of the positions; unused ones are H or OH. Bridge positions count the residues as written; N and C are the ends. Side chains are listed from the residue outwards. Ends that are not written are not given here. * marks the point of attachment. C20 diacid = O=C(O)CCCCCCCCCCCCCCCCCCC(=O)*; C18 diacid = O=C(O)CCCCCCCCCCCCCCCCC(=O)*; C16 diacid = O=C(O)CCCCCCCCCCCCCCC(=O)*; γGlu = O=C(O)[C@H](CCC(=O)[*:2])N[*:1]

The target of test [1] is T1, human amylin receptor (amylin 3(a) receptor: human calcitonin receptor with RAMP-3) (human, UniProt P30988 25-474; O60896 24-148).
T1 construct: whole, on cells; Assay used cell membranes of the Amylin 3(a)/CRE-luc BHK cells, not intact cells; also called hAmylin-R; hAmylinR
T1 sequence (looked up) 1: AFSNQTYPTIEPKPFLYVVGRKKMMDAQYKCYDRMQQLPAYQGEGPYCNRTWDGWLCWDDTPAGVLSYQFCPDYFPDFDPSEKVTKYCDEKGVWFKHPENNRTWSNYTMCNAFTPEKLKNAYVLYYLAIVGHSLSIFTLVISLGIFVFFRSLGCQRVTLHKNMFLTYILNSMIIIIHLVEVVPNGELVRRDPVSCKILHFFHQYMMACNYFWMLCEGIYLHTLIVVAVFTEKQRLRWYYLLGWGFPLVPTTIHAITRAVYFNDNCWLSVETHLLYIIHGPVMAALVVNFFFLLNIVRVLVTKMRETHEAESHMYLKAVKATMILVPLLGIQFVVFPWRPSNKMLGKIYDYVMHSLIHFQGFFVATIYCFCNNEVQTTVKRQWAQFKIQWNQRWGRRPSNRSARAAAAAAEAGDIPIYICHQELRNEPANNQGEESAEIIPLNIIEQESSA
T1 sequence (looked up) 2: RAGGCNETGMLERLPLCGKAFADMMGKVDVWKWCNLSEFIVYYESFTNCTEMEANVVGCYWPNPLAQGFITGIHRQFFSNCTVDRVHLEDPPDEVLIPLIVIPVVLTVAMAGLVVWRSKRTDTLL
Description: SPA competition with 125I-rat amylin on membranes of BHK cells with human calcitonin receptor and RAMP-3 (Assay V). The method in brief: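 Membranes from BHK Amylin 3(a)/CRE-luc cells (35 ng/μL final) were mixed with SPA beads and test compounds in 50 mM Hepes pH 7.4 with 1 mM CaCl2, 5 mM MgCl₂, 0.1% OA and 0.02% Tween20. Incubation ran 120 min at 25° C with shaking; IC₅₀ came from one-site competition fitting.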

In test [2] the target is T2, human calcitonin receptor (human, UniProt P30988 25-474).
T2 construct: whole, on cells; Assay used cell membranes, not intact cells; also called hCTR; hCT
T2 sequence (looked up): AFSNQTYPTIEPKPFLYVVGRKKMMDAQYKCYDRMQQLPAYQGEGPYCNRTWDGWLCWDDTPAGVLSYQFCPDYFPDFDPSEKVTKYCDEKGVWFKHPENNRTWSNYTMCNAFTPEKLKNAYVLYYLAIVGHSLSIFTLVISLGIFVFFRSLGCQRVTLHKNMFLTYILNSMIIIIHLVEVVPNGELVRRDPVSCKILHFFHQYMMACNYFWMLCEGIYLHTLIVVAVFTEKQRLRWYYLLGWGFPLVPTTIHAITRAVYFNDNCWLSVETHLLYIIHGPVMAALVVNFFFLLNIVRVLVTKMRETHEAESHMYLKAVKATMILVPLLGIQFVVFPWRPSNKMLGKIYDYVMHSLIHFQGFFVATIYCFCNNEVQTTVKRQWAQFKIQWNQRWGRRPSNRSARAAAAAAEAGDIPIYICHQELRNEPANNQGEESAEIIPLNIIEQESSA
Nature of the test: ratio IC50 hCTR / IC50 hAmylin-R (reference: human amylin receptor), SPA competition assays. An outline of the steps: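 Scintillation proximity competition binding on cell membranes at 35 ng/μL with SPA beads, in 50 mM Hepes pH 7.4, 1 mM CaCl2, 5 mM MgCl₂, 0.1% OA, 0.02% Tween20. Incubated 120 min at 25° C with shaking. IC₅₀ from one-site competition fit.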

In test [3] the target is T2, human calcitonin receptor. Description: SPA competition with 125I-calcitonin on membranes of BHK cells with human calcitonin receptor (Assay VII). An outline of the steps: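 BHK hCTR membranes 35 ng/μL + SPA beads 0.05 mg/well; buffer 50 mM Hepes pH 7.4, 1 mM CaCl2, 5 mM MgCl₂, 0.1% OA, 0.02% Tween20. 120 min, 25° C., shaking. Scintillation count; IC50 by one-site binding competition.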

B1: N^ε1-[(4S)-4-carboxy-4-(15-carboxypentadecanoylamino)butanoyl]-[Arg17,Pro21,Pro27,His34]-h-amylin (peptide)
peptide: K([γGlu-C16 diacid])CNTATCATQRLANFLRHSSPNFGAIPSSTNVGHNTY-NH2
modifications: disulfide 2-7; N-terminus assumed
SMILES: CC[C@H](C)[C@H](NC(=O)[C@H](C)NC(=O)CNC(=O)[C@H](Cc1ccccc1)NC(=O)[C@H](CC(N)=O)NC(=O)[C@@H]1CCCN1C(=O)[C@H](CO)NC(=O)[C@H](CO)NC(=O)[C@H](Cc1c[nH]cn1)NC(=O)[C@H](CCCNC(=N)N)NC(=O)[C@H](CC(C)C)NC(=O)[C@H](Cc1ccccc1)NC(=O)[C@H](CC(N)=O)NC(=O)[C@H](C)NC(=O)[C@H](CC(C)C)NC(=O)[C@H](CCCNC(=N)N)NC(=O)[C@H](CCC(N)=O)NC(=O)[C@@H](NC(=O)[C@H](C)NC(=O)[C@@H]1CSSC[C@H](NC(=O)[C@@H](N)CCCCNC(=O)CC[C@H](NC(=O)CCCCCCCCCCCCCCC(=O)O)C(=O)O)C(=O)N[C@@H](CC(N)=O)C(=O)N[C@@H]([C@@H](C)O)C(=O)N[C@@H](C)C(=O)N[C@@H]([C@@H](C)O)C(=O)N1)[C@@H](C)O)C(=O)N1CCC[C@H]1C(=O)N[C@@H](CO)C(=O)N[C@@H](CO)C(=O)N[C@H](C(=O)N[C@@H](CC(N)=O)C(=O)N[C@H](C(=O)NCC(=O)N[C@@H](Cc1c[nH]cn1)C(=O)N[C@@H](CC(N)=O)C(=O)N[C@H](C(=O)N[C@@H](Cc1ccc(O)cc1)C(N)=O)[C@@H](C)O)C(C)C)[C@@H](C)O
With B1, the IC50 (usually the concentration that inhibits the measured activity by half) came to 0.58 nM in test [1] and 10.8 nM in test [3]. Besides, the “Ratio hCT/hAmylin binding” value in test [2] amounted to 18.5.

B2: N^ε1-[(4S)-4-carboxy-4-(17-carboxyheptadecanoylamino)butanoyl]-[Arg17,Pro21,Pro27,His34]-h-amylin (peptide)
peptide: K([γGlu-C18 diacid])CNTATCATQRLANFLRHSSPNFGAIPSSTNVGHNTY-NH2
modifications: disulfide 2-7; N-terminus assumed
SMILES: CC[C@H](C)[C@H](NC(=O)[C@H](C)NC(=O)CNC(=O)[C@H](Cc1ccccc1)NC(=O)[C@H](CC(N)=O)NC(=O)[C@@H]1CCCN1C(=O)[C@H](CO)NC(=O)[C@H](CO)NC(=O)[C@H](Cc1c[nH]cn1)NC(=O)[C@H](CCCNC(=N)N)NC(=O)[C@H](CC(C)C)NC(=O)[C@H](Cc1ccccc1)NC(=O)[C@H](CC(N)=O)NC(=O)[C@H](C)NC(=O)[C@H](CC(C)C)NC(=O)[C@H](CCCNC(=N)N)NC(=O)[C@H](CCC(N)=O)NC(=O)[C@@H](NC(=O)[C@H](C)NC(=O)[C@@H]1CSSC[C@H](NC(=O)[C@@H](N)CCCCNC(=O)CC[C@H](NC(=O)CCCCCCCCCCCCCCCCC(=O)O)C(=O)O)C(=O)N[C@@H](CC(N)=O)C(=O)N[C@@H]([C@@H](C)O)C(=O)N[C@@H](C)C(=O)N[C@@H]([C@@H](C)O)C(=O)N1)[C@@H](C)O)C(=O)N1CCC[C@H]1C(=O)N[C@@H](CO)C(=O)N[C@@H](CO)C(=O)N[C@H](C(=O)N[C@@H](CC(N)=O)C(=O)N[C@H](C(=O)NCC(=O)N[C@@H](Cc1c[nH]cn1)C(=O)N[C@@H](CC(N)=O)C(=O)N[C@H](C(=O)N[C@@H](Cc1ccc(O)cc1)C(N)=O)[C@@H](C)O)C(C)C)[C@@H](C)O
Turning to B2, the IC50 worked out at 0.382 nM in test [1] and 22.7 nM in test [3]. In addition, in test [2], the “Ratio hCT/hAmylin binding” value turned out to be 59.4.

B3: N^ε1-[(4S)-4-carboxy-4-(19-carboxynonadecanoylamino)butanoyl]-[Ala14,Arg17,Pro21,Pro27,Pro34]-h-amylin (peptide)
peptide: K([γGlu-C20 diacid])CNTATCATQRLAAFLRHSSPNFGAIPSSTNVGPNTY-NH2
modifications: disulfide 2-7; N-terminus assumed
SMILES: CC[C@H](C)[C@H](NC(=O)[C@H](C)NC(=O)CNC(=O)[C@H](Cc1ccccc1)NC(=O)[C@H](CC(N)=O)NC(=O)[C@@H]1CCCN1C(=O)[C@H](CO)NC(=O)[C@H](CO)NC(=O)[C@H](Cc1c[nH]cn1)NC(=O)[C@H](CCCNC(=N)N)NC(=O)[C@H](CC(C)C)NC(=O)[C@H](Cc1ccccc1)NC(=O)[C@H](C)NC(=O)[C@H](C)NC(=O)[C@H](CC(C)C)NC(=O)[C@H](CCCNC(=N)N)NC(=O)[C@H](CCC(N)=O)NC(=O)[C@@H](NC(=O)[C@H](C)NC(=O)[C@@H]1CSSC[C@H](NC(=O)[C@@H](N)CCCCNC(=O)CC[C@H](NC(=O)CCCCCCCCCCCCCCCCCCC(=O)O)C(=O)O)C(=O)N[C@@H](CC(N)=O)C(=O)N[C@@H]([C@@H](C)O)C(=O)N[C@@H](C)C(=O)N[C@@H]([C@@H](C)O)C(=O)N1)[C@@H](C)O)C(=O)N1CCC[C@H]1C(=O)N[C@@H](CO)C(=O)N[C@@H](CO)C(=O)N[C@H](C(=O)N[C@@H](CC(N)=O)C(=O)N[C@H](C(=O)NCC(=O)N1CCC[C@H]1C(=O)N[C@@H](CC(N)=O)C(=O)N[C@H](C(=O)N[C@@H](Cc1ccc(O)cc1)C(N)=O)[C@@H](C)O)C(C)C)[C@@H](C)O
notes: also called compound 94
With B3, the half-maximal inhibitory concentration (IC50) in test [1] was found to be 0.148 nM; in test [3] it was 6.86 nM. In addition, in test [2], the “Ratio hCT/hAmylin binding” value amounted to 46.3.

B4: N^ε1-[(4S)-4-carboxy-4-(19-carboxynonadecanoylamino)butanoyl]-[Arg14,Arg17,Pro21,Pro27]-h-amylin (peptide)
peptide: K([γGlu-C20 diacid])CNTATCATQRLARFLRHSSPNFGAIPSSTNVGSNTY-NH2
modifications: disulfide 2-7; N-terminus assumed
SMILES: CC[C@H](C)[C@H](NC(=O)[C@H](C)NC(=O)CNC(=O)[C@H](Cc1ccccc1)NC(=O)[C@H](CC(N)=O)NC(=O)[C@@H]1CCCN1C(=O)[C@H](CO)NC(=O)[C@H](CO)NC(=O)[C@H](Cc1c[nH]cn1)NC(=O)[C@H](CCCNC(=N)N)NC(=O)[C@H](CC(C)C)NC(=O)[C@H](Cc1ccccc1)NC(=O)[C@H](CCCNC(=N)N)NC(=O)[C@H](C)NC(=O)[C@H](CC(C)C)NC(=O)[C@H](CCCNC(=N)N)NC(=O)[C@H](CCC(N)=O)NC(=O)[C@@H](NC(=O)[C@H](C)NC(=O)[C@@H]1CSSC[C@H](NC(=O)[C@@H](N)CCCCNC(=O)CC[C@H](NC(=O)CCCCCCCCCCCCCCCCCCC(=O)O)C(=O)O)C(=O)N[C@@H](CC(N)=O)C(=O)N[C@@H]([C@@H](C)O)C(=O)N[C@@H](C)C(=O)N[C@@H]([C@@H](C)O)C(=O)N1)[C@@H](C)O)C(=O)N1CCC[C@H]1C(=O)N[C@@H](CO)C(=O)N[C@@H](CO)C(=O)N[C@H](C(=O)N[C@@H](CC(N)=O)C(=O)N[C@H](C(=O)NCC(=O)N[C@@H](CO)C(=O)N[C@@H](CC(N)=O)C(=O)N[C@H](C(=O)N[C@@H](Cc1ccc(O)cc1)C(N)=O)[C@@H](C)O)C(C)C)[C@@H](C)O
notes: also called compound 83
In the case of B4, the figures for the half-inhibitory concentration (IC50) in test [1] and in test [3] were 0.939 nM and 137 nM, respectively. The “Ratio hCT/hAmylin binding” value in test [2] stood at 146.

B5: N^ε1-[(4S)-4-carboxy-4-(19-carboxynonadecanoylamino)butanoyl]-[Ala14,Arg17,Pro21,Pro27,His34]-h-amylin (peptide)
peptide: K([γGlu-C20 diacid])CNTATCATQRLAAFLRHSSPNFGAIPSSTNVGHNTY-NH2
modifications: disulfide 2-7; N-terminus assumed
SMILES: CC[C@H](C)[C@H](NC(=O)[C@H](C)NC(=O)CNC(=O)[C@H](Cc1ccccc1)NC(=O)[C@H](CC(N)=O)NC(=O)[C@@H]1CCCN1C(=O)[C@H](CO)NC(=O)[C@H](CO)NC(=O)[C@H](Cc1c[nH]cn1)NC(=O)[C@H](CCCNC(=N)N)NC(=O)[C@H](CC(C)C)NC(=O)[C@H](Cc1ccccc1)NC(=O)[C@H](C)NC(=O)[C@H](C)NC(=O)[C@H](CC(C)C)NC(=O)[C@H](CCCNC(=N)N)NC(=O)[C@H](CCC(N)=O)NC(=O)[C@@H](NC(=O)[C@H](C)NC(=O)[C@@H]1CSSC[C@H](NC(=O)[C@@H](N)CCCCNC(=O)CC[C@H](NC(=O)CCCCCCCCCCCCCCCCCCC(=O)O)C(=O)O)C(=O)N[C@@H](CC(N)=O)C(=O)N[C@@H]([C@@H](C)O)C(=O)N[C@@H](C)C(=O)N[C@@H]([C@@H](C)O)C(=O)N1)[C@@H](C)O)C(=O)N1CCC[C@H]1C(=O)N[C@@H](CO)C(=O)N[C@@H](CO)C(=O)N[C@H](C(=O)N[C@@H](CC(N)=O)C(=O)N[C@H](C(=O)NCC(=O)N[C@@H](Cc1c[nH]cn1)C(=O)N[C@@H](CC(N)=O)C(=O)N[C@H](C(=O)N[C@@H](Cc1ccc(O)cc1)C(N)=O)[C@@H](C)O)C(C)C)[C@@H](C)O
notes: also called compound 93
In the case of B5, the results for the IC50 in test [1] and in test [3] were 0.176 nM and 17.8 nM, respectively. Besides, the “Ratio hCT/hAmylin binding” value in test [2] was found to be 101.
